Laboratory results reported in FireProtDB (doi:10.1093/hmg/ddv370).

B1: Guanylyl cyclase-activating protein 1, P43080 (parent)
chain: MGNVMEGKSVEELSSTECHQWYKKFMTECPSGQLTLYEFRQFFGLKNLSPSASQYVEQMFETFDFNKDGYIDFMEYVAALSLVLKGKVEQKLRWYFKLYDVDGNGCIDRDELLTIIQAIRAINPCSDTTMTAEEFTDTVFSKIDVNGDGELSLEEFIEGVQKDQMLLDTLTRSLDLTRIVRRLQNGEQDEEGADEAAEAAG

Variants of: B1
Details: Homo sapiens; pH 7.5; Thermal; CD; Tris-HCl; KCl; transition: 2; whole UniProt chain shown

Variant | change of melting temperature, mutant - wild type (higher = more stable) [°C]
MGNVMEGKSVEELSSTECHQWYKKFMTECPSGQLTLYEFRQFFGLKNLSPSASQYVEQMFETFDFNKDGYIDFMEYVAALSLVFKGKVEQKLRWYFKLYDVDGNGCIDRDELLTIIQAIRAINPCSDTTMTAEEFTDTVFSKIDVNGDGELSLEEFIEGVQKDQMLLDTLTRSLDLTRIVRRLQNGEQDEEGADEAAEAAG [L84F] | -9.3
MGNVMEGKSVEELSSTECHQWYKKFMTECPSGQLTLYEFRQFFGLKNLSPSASQYVEQMFETFDFNKDGYIDFMEYVAALSLVLKGKVEQKLRWYFKLYDVDGNGCTDRDELLTIIQAIRAINPCSDTTMTAEEFTDTVFSKIDVNGDGELSLEEFIEGVQKDQMLLDTLTRSLDLTRIVRRLQNGEQDEEGADEAAEAAG [I107T] | -8.1

Same assay, conditions: Homo sapiens; pH 7.5; Thermal; CD; Tris-HCl; KCl; transition: 3; whole UniProt chain shown

Variant | change of melting temperature, mutant - wild type (higher = more stable) [°C]
MGNVMEGKSVEELSSTECHQWYKKFMTECPSGQLTLYEFRQFFGLKNLSPSASQYVEQMFETFDFNKDGYIDFMEYVAALSLVLKGKVEQKLRWYFKLYDVDGNGCTDRDELLTIIQAIRAINPCSDTTMTAEEFTDTVFSKIDVNGDGELSLEEFIEGVQKDQMLLDTLTRSLDLTRIVRRLQNGEQDEEGADEAAEAAG [I107T] | -8.1
